{"source": "paper PMC4923194", "about": "“The Crystal Structure of the C-Terminal Domain of the Salmonella enterica PduO Protein: An Old Fold with a New Heme-Binding Mode” (Frontiers in Microbiology, 2016)", "molecules": {"B1": {"name": "C-terminal domain of the Salmonella enterica PduO protein (PduOC) (domain or fragment)", "chain": "KETTPVALSFHDLHQLTRAAVERAQQLQVPVVVSIVDAHGTETVTWRMPDALLVSSELAPKKAWTAVAMKTATHELSDVVQPGAALYGLESHLQGKVVTFGGGYALWRDGILIGGLGISGGSVEQDMDIAQTAIAAINVGTHQ", "notes": "PduO, ATP:Cob(I)alamin adenosyltransferase of S. enterica subsp. enterica serovar Typhimurium; C-terminal domain (PduOC); the His-tag-free monomer has 147 residues; the N-terminal domain (PduON) has 197 residues; excess heme B added to the lysate for crystallography; Residues left by the pETM11 vector after TEV cleavage are probably counted in the 147 residues (surmise); also called PduOC:heme; …"}}, "key": {"[1]": {"target": "PduOC-His18Ala (H18A) mutant (Salmonella enterica subsp. enterica serovar Typhimurium)", "assay": "SEC-MALS; Superdex 200 increase 10/300 GL in 100 mM Tris-HCl pH 8, 150 mM NaCl, with multi-angle static light scattering and refractive index detectors; wild type as PduOC:heme, H18A without heme"}, "[2]": {"target": "T1, PduO C-terminal domain (PduOC) (Salmonella enterica, UniProt A0A0F6B395)", "T1 construct": "C-terminal domain PduOC, 147 residues, His-tag-free; octamer with 4 hemes", "assay": "crystal structure ([…] Å) and ITC; UV/Vis titration", "assay_type": "binding"}, "[3]": {"target": "the molecule itself", "assay": "SEC; gel filtration of the PduOC apoprotein (heme extracted); data not shown"}, "[4]": {"target": "the molecule itself", "assay": "SEC-MALS; Superdex 200 increase 10/300 GL in 100 mM Tris-HCl pH 8, 150 mM NaCl, with multi-angle static light scattering and refractive index detectors; wild type as PduOC:heme, H18A without heme"}}, "data": [{"molecule": "PduOC-His18Ala (H18A) mutant (domain or fragment)", "values": [{"measurement": "stoichiometry N", "setting": "[1]", "value": 2}]}, {"molecule": "C=CC1=C(C)C2=Cc3c(C=C)c(C)c4[n]3[Fe][n]3c(c(C)c(CCC(=O)O)c3=CC3=NC(=C4)C(C)=C3CCC(=O)O)=CC1=N2", "note": "[heme B]", "values": [{"measurement": "Kd", "setting": "[2]", "value": 160, "unit": "nM"}]}, {"molecule": "B1", "values": [{"measurement": "stoichiometry N", "setting": "[3]", "value": 2}, {"measurement": "stoichiometry N", "setting": "[4]", "value": 8}]}]}
